Data reported in patent publication US4851572A, “γ-L-glutamyl-4-nitroanilide derivatives and process for determining γ-GTP activity using the same” (Wako Pure Chemical Industries, Ltd., priority 1987, dated 1989).

Tested on: T1, N[C@@H](CCC(=O)Nc1ccc([N+](=O)[O-])c(CO)c1)C(=O)O
T1 construct: As samples, there were used human serum; from tissue; host or cells: human serum
Experiment: Km value, γ-GTP from human serum
Type: biochemical
Conditions: other: human serum γ-GTP
Text: In Table 3 are shown the results of measuring, by a conventional method, Km values of γ-L-glutamyl-3-hydroxymethyl-4-nitroanilide, which is a compound of this invention, for each of γ-GTPs derived from human serum, porcine kidney and bovine kidney.
In Table 3 are also shown, for reference, Km values of γ-L-glutamyl-3-carboxy-4-nitroanilide and γ-L-glutamyl-p-nitroanilide reported by Leslie M. Shaw (Clinical Chemistry, 23, 79 (1977)).

Sequence of γ-GTP (human serum) (Homo sapiens) (chain, as listed by the source): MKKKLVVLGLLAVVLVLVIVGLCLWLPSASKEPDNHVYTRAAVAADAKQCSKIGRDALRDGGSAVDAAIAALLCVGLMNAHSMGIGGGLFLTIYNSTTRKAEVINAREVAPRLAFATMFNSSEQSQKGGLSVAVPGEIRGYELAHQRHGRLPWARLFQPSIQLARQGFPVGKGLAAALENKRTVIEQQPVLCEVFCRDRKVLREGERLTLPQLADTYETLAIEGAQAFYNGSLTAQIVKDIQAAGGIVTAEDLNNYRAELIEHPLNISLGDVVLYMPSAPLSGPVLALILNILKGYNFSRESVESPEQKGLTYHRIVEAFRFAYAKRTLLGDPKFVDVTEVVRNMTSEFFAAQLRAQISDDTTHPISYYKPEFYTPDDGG
Sequence of γ-GTP (human serum) (Homo sapiens) (chain, as listed by the source): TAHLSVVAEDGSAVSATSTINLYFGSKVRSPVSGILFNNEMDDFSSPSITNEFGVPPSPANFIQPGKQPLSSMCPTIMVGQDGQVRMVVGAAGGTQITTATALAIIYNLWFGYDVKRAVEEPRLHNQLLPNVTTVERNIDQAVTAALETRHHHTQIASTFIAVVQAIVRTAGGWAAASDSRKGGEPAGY

γ-GTP (human serum) (Homo sapiens) showed a Km of 940 µM.
